Consider 17 molecules from patent publication US20230265151A1, “GIP/GLP1 CO-AGONIST COMPOUNDS” (priority 2020, published 2023).

Assay in all cases: cell-based or functional assay
One assay addresses T1, human GIP receptor (human, UniProt P48546 22-466).
T1 sequence (looked up): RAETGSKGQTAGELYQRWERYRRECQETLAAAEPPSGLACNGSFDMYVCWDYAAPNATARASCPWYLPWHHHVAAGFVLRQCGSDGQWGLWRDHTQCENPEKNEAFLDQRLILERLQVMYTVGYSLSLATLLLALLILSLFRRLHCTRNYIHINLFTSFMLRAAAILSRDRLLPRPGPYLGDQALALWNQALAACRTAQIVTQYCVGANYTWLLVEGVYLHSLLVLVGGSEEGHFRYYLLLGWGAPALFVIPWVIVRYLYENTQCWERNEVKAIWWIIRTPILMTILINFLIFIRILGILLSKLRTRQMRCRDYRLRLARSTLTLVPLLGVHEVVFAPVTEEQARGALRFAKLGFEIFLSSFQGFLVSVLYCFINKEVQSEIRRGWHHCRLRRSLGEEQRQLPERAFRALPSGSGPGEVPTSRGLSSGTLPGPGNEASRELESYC

The next assay has as its target human GLP-1 receptor (human, UniProt P43220 24-463).
Another assay addresses human glucagon receptor (human, UniProt P47871 26-477).

Residue numbers refer to the chain shown, from its start. *1 amine or outer side, *2 acyl side, *3 side chain or, on linkers, in order; H or OH if unused. Where no end group is shown, it is not given here. Side-chain parts run from the residue outwards. [ ]: non-standard residue; d: D form. The star is where a group is joined. αMePhe(2-F) = C[C@](N)(Cc1ccccc1F)C(=O)O; γGlu = O=C(O)[C@H](CCC(=O)[*:2])N[*:1]; C14 diacid = O=C(O)CCCCCCCCCCCCC(=O)*; αMeY = C[C@](N)(Cc1ccc(O)cc1)C(=O)O; αMeL = CC(C)C[C@](C)(N)C(=O)O; Nle = CCCC[C@H](N)C(=O)O; Orn = NCCC[C@H](N)C(=O)O; AEEA = NCCOCCOCC(=O)O; Aib = CC(C)(N)C(=O)O

Chain of human glucagon receptor (P47871 26-477): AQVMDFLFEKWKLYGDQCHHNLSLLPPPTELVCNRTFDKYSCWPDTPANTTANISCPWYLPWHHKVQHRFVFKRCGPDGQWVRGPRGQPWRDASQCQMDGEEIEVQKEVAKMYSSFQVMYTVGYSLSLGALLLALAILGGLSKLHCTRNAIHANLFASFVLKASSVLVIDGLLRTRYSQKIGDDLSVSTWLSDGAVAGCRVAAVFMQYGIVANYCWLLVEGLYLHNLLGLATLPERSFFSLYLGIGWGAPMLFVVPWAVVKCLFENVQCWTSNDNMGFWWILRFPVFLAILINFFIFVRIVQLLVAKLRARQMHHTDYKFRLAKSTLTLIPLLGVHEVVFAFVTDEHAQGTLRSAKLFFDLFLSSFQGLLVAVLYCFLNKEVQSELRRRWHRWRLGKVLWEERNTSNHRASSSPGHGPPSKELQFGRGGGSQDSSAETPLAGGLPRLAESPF

B1: Example 485 (peptide)
peptide: YXEGTXTSDXXIXLDXQAQXXFIKXLIKGGPSSGAPPPS
modifications: Y-Aib-EGT-αMeF(2F)-TSD-4Pal-Aib-I-αMeL-LD-Orn-QAQ-Aib-Orn-FIK((2-[2-(2-Amino-ethoxy)-ethoxy]-acetyl)-(γ-Glu)-(2-[2-(2-Amino-ethoxy)-ethoxy]-acetyl)-(γ-Glu)-(10-(4-carboxyphenoxy)decanoyl))-αMeY-LIK((2-[2-(2-Amino-ethoxy)-ethoxy]-acetyl)-(γ-Glu)-(2-[2-(2-Amino-ethoxy)-ethoxy]-acetyl)-(γ-Glu)-(10-(4-carboxyphenoxy)decanoyl))GGPSSGAPPPS-NH2
For the molecule B1, the “cAMP EC50 (1.0% HSA)” value in the assay with human GIP receptor is 0.536 nM; with human GLP-1 receptor, 3.9 nM; in the assay with human glucagon receptor, over 9950 nM.

B2: Example 458 (peptide)
peptide: B1 peptide
modifications: Y-Aib-EGT-αMeF(2F)-TSD-4Pal-Aib-I-αMeL-LD-Orn-QAQ-Aib-Orn-FIK(PEG3-(γ-Glu)-CO-(CH2)12-CO2H)-αMeY-LIK(PEG3-(γ-Glu)-CO-(CH2)12-CO2H)GGPSSGAPPPS-NH2
Turning to B2, the “cAMP EC50 (1.0% HSA)” value with human GIP receptor was 0.726 nM; in the assay with human GLP-1 receptor it was 7.61 nM; in the assay with human glucagon receptor, over 9950 nM.

B3: Example 461 (peptide)
peptide: B1 peptide
modifications: Y-Aib-EGT-αMeF(2F)-TSD-4Pal-Aib-I-αMeL-LD-Orn-QAQ-Aib-Orn-FIK(PEG4-(γ-Glu)-(10-(4-carboxyphenoxy)decanoyl))-αMeY-LIK(PEG4-(γ-Glu)-(10-(4-carboxyphenoxy)decanoyl))GGPSSGAPPPS-NH2
With B3, the “cAMP EC50 (1.0% HSA)” value in the assay with human GIP receptor is 0.247 nM; with human GLP-1 receptor it was 2.76 nM; with human glucagon receptor it was over 10100 nM.

B4: Example 459 (peptide)
peptide: B1 peptide
modifications: Y-Aib-EGT-αMeF(2F)-TSD-4Pal-Aib-I-αMeL-LD-Orn-QAQ-Aib-Orn-FIK((2-[2-(2-Amino-ethoxy)-ethoxy]-acetyl)-(γ-Glu)-CO-(CH2)12-CO2H)-αMeY-LIK((2-[2-(2-Amino-ethoxy)-ethoxy]-acetyl)-(γ-Glu)-CO-(CH2)12-CO2H)GGPSSGAPPPS-NH2
Turning to B4, the “cAMP EC50 (1.0% HSA)” value is 0.323 nM with human GIP receptor, 4.87 nM in the assay with human GLP-1 receptor and over 9950 nM with human glucagon receptor.

B5: Example 481 (peptide)
peptide: B1 peptide with X10Y, Q17I
modifications: Y-Aib-EGT-αMeF(2F)-TSDY-Aib-I-αMeL-LD-Orn-IAQ-Aib-Orn-FIK((2-[2-(2-Amino-ethoxy)-ethoxy]-acetyl)3-(γ-Glu)--(10-(4-carboxyphenoxy)decanoyl))-αMeY-LIK((2-[2-(2-Amino-ethoxy)-ethoxy]-acetyl)3-(γ-Glu)--(10-(4-carboxyphenoxy)decanoyl))GGPSSGAPPPS-NH2
Consider B5, for which the “cAMP EC50 (1.0% HSA)” value in the assay with human GIP receptor is 0.467 nM; with human GLP-1 receptor, 6.16 nM; with human glucagon receptor, over 9950 nM. Besides, in the assay with human GLP-1 receptor, the “cAMP Emax (1.0% HSA)” value worked out at 112%.

B6: Example 479 (peptide)
peptide: B1 peptide with X10Y
modifications: Y-Aib-EGT-αMeF(2F)-TSDY-Aib-I-αMeL-LD-Orn-QAQ-Aib-Orn-FIK((2-[2-(2-Amino-ethoxy)-ethoxy]-acetyl)3-(γ-Glu)-CO-(CH2)12-CO2H)-αMeY-LIK((2-[2-(2-Amino-ethoxy)-ethoxy]-acetyl)3-(γ-Glu)-CO-(CH2)12-CO2H)GGPSSGAPPPS-NH2
Regarding B6, the results for the “cAMP EC50 (1.0% HSA)” value with human GIP receptor, in the assay with human GLP-1 receptor and with human glucagon receptor were 0.196 nM, 2.55 nM and over 9950 nM, respectively. Moreover, the “cAMP Emax (1.0% HSA)” value with human GIP receptor came to 89.5%.

B7: Example 478 (peptide)
peptide: B1 peptide with X10Y, Q17I
modifications: Y-Aib-EGT-αMeF(2F)-TSDY-Aib-I-αMeL-LD-Orn-IAQ-Aib-Orn-FIK((2-[2-(2-Amino-ethoxy)-ethoxy]-acetyl)3-(γ-Glu)-CO-(CH2)12-CO2H)-αMeY-LIK((2-[2-(2-Amino-ethoxy)-ethoxy]-acetyl)3-(γ-Glu)-CO-(CH2)12-CO2H)GGPSSGAPPPS-NH2
As to B7, the “cAMP EC50 (1.0% HSA)” value with human GIP receptor was 0.517 nM; in the assay with human GLP-1 receptor it was 6.16 nM; with human glucagon receptor, over 9950 nM. Also, the “cAMP Emax (1.0% HSA)” value with human GLP-1 receptor was found to be 108%.

B8: Example 476 (peptide)
peptide: B1 peptide
modifications: Y-Aib-EGT-αMeF(2F)-TSD-4Pal-Aib-I-αMeL-LD-Orn-QAQ-Aib-Orn-FIK((2-[2-(2-Amino-ethoxy)-ethoxy]-acetyl)3-(γ-Glu)-CO-(CH2)12-CO2H)-αMeY-LIK((2-[2-(2-Amino-ethoxy)-ethoxy]-acetyl)3-(γ-Glu)-CO-(CH2)12-CO2H)GGPSSGAPPPS-NH2
With B8, the figures for the “cAMP EC50 (1.0% HSA)” value in the assay with human GIP receptor, with human GLP-1 receptor and with human glucagon receptor were 0.154 nM, 1.5 nM and over 9950 nM, respectively.

B9: Example 482 (peptide)
peptide: B1 peptide
modifications: Y-Aib-EGT-αMeF(2F)-TSD-4Pal-Aib-I-αMeL-LD-Orn-QAQ-Aib-Orn-FIK((γ-Glu)-(2-[2-(2-Amino-ethoxy)-ethoxy]-acetyl)2-(γ-Glu)-CO-(CH2)12-CO2H)-αMeY-LIK((γ-Glu)-(2-[2-(2-Amino-ethoxy)-ethoxy]-acetyl)2-(γ-Glu)-CO-(CH2)12-CO2H)GGPSSGAPPPS-NH2
On to B9, for which the “cAMP EC50 (1.0% HSA)” value is 0.89 nM with human GIP receptor, 4.85 nM with human GLP-1 receptor and over 9950 nM with human glucagon receptor.

B10: Example 472 (peptide)
peptide: B1 peptide
modifications: Y-Aib-EGT-αMeF(2F)-TSD-4Pal-Aib-I-αMeL-LD-Orn-QAQ-Aib-Orn-FIK((2-[2-(2-Amino-ethoxy)-ethoxy]-acetyl)-Trx-(γ-Glu)-CO-(CH2)12-CO2H)-αMeY-LIK(((2-[2-(2-Amino-ethoxy)-ethoxy]-acetyl)-Trx-(γ-Glu)-CO-(CH2)12-CO2H)GGPSSGAPPPS-NH2)
B10: the “cAMP EC50 (1.0% HSA)” value was 0.663 nM with human GIP receptor, 7.41 nM with human GLP-1 receptor and over 9950 nM in the assay with human glucagon receptor. For the same molecule, the “cAMP Emax (1.0% HSA)” value with human GIP receptor came out at 76.3%.

B11: Example 475 (peptide)
peptide: B1 peptide
modifications: Y-Aib-EGT-αMeF(2F)-TSD-4Pal-Aib-I-αMeL-LD-Orn-QAQ-Aib-Orn-FIK((2-[2-(2-Amino-ethoxy)-ethoxy]-acetyl)2-(γ-Glu)2--(10-(4-carboxyphenoxy)decanoyl))-αMeY-LIK((2-[2-(2-Amino-ethoxy)-ethoxy]-acetyl)2-(γ-Glu)2--(10-(4-carboxyphenoxy)decanoyl))GGPSSGAPPPS-NH2
As for B11, the results for the “cAMP EC50 (1.0% HSA)” value with human GIP receptor, with human GLP-1 receptor and with human glucagon receptor were 0.211 nM, 1.44 nM and over 9950 nM, respectively.

B12: Example 457 (peptide)
peptide: B1 peptide
modifications: Y-Aib-EGT-αMeF(2F)-TSD-4Pal-Aib-I-αMeL-LD-Orn-QAQ-Aib-Orn-FIK(PEG4-(γ-Glu)-CO-(CH2)12-CO2H)-αMeY-LIK(PEG4-(γ-Glu)-CO-(CH2)12-CO2H)GGPSSGAPPPS-NH2
In the case of B12, the “cAMP EC50 (1.0% HSA)” value is 0.334 nM with human GIP receptor, 4.69 nM with human GLP-1 receptor and over 9950 nM in the assay with human glucagon receptor.

B13: Example 469 (peptide)
peptide: B1 peptide
modifications: Y-Aib-EGT-αMeF(2F)-TSD-4Pal-Aib-I-αMeL-LD-Orn-QAQ-Aib-Orn-FIK(PEG5-(γ-Glu)-(10-(4-carboxyphenoxy)decanoyl))-αMeY-LIK(PEG5-(γ-Glu)-(10-(4-carboxyphenoxy)decanoyl))GGPSSGAPPPS-NH2
B13: the “cAMP EC50 (1.0% HSA)” value in the assay with human GIP receptor was 0.203 nM; with human GLP-1 receptor, 2.33 nM; with human glucagon receptor it was over 9950 nM.

B14: Example 467 (peptide)
peptide: B1 peptide
modifications: Y-Aib-EGT-αMeF(2F)-TSD-4Pal-Aib-I-αMeL-LD-Orn-QAQ-Aib-Orn-FIK(PEG5-(γ-Glu)-CO-(CH2)12-CO2H)-αMeY-LIK(PEG5-(γ-Glu)-CO-(CH2)12-CO2H)GGPSSGAPPPS-NH2
Consider B14, for which the “cAMP EC50 (1.0% HSA)” value is 0.35 nM with human GIP receptor, 2.87 nM in the assay with human GLP-1 receptor and over 10100 nM with human glucagon receptor.

B15: Example 474 (peptide)
peptide: B1 peptide
modifications: Y-Aib-EGT-αMeF(2F)-TSD-4Pal-Aib-I-αMeL-LD-Orn-QAQ-Aib-Orn-FIK((2-[2-(2-Amino-ethoxy)-ethoxy]-acetyl)2-(γ-Glu)2-CO-(CH2)12-CO2H)-αMeY-LIK((2-[2-(2-Amino-ethoxy)-ethoxy]-acetyl)2-(γ-Glu)2-CO-(CH2)12-CO2H)GGPSSGAPPPS-NH2
For B15, the “cAMP EC50 (1.0% HSA)” value with human GIP receptor is 0.156 nM; in the assay with human GLP-1 receptor, 1.1 nM; with human glucagon receptor, over 9950 nM.

B16: Example 480 (peptide)
peptide: B1 peptide with X10Y
modifications: Y-Aib-EGT-αMeF(2F)-TSDY-Aib-I-αMeL-LD-Orn-QAQ-Aib-Orn-FIK((2-[2-(2-Amino-ethoxy)-ethoxy]-acetyl)2-(γ-Glu)2-CO-(CH2)12-CO2H)-αMeY-LIK((2-[2-(2-Amino-ethoxy)-ethoxy]-acetyl)2-(γ-Glu)2-CO-(CH2)12-CO2H)GGPSSGAPPPS-NH2
As to B16, the “cAMP EC50 (1.0% HSA)” value is 0.29 nM with human GIP receptor, 2.65 nM with human GLP-1 receptor and over 9950 nM in the assay with human glucagon receptor. For the same molecule, the “cAMP Emax (1.0% HSA)” value with human GLP-1 receptor was 104%.

On to Y[Aib]EGT[αMePhe(2-F)]TSD[Nle]SI[αMeL]LD[Orn]QAQ[Aib][Orn]FIK([AEEA-AEEA-γGlu-C14 diacid])[αMeY]LIK([AEEA-AEEA-γGlu-C14 diacid])GGPSSGAPPPS-NH2 [Example 490], for which the results for the “cAMP EC50 (1.0% HSA)” value in the assay with human GIP receptor, in the assay with human GLP-1 receptor and with human glucagon receptor were 0.976 nM, 7.68 nM and over 9950 nM, respectively. In the assay with human GIP receptor, the “cAMP Emax (1.0% HSA)” value stood at 97.1%.
